# Ends that are not written are not given here.
# Target: Human Hsc70 (HSPA8) (human, UniProt P11142 1-646)
# Experiment: FP
# Sequence of Human Hsc70 (HSPA8) (P11142 whole entry): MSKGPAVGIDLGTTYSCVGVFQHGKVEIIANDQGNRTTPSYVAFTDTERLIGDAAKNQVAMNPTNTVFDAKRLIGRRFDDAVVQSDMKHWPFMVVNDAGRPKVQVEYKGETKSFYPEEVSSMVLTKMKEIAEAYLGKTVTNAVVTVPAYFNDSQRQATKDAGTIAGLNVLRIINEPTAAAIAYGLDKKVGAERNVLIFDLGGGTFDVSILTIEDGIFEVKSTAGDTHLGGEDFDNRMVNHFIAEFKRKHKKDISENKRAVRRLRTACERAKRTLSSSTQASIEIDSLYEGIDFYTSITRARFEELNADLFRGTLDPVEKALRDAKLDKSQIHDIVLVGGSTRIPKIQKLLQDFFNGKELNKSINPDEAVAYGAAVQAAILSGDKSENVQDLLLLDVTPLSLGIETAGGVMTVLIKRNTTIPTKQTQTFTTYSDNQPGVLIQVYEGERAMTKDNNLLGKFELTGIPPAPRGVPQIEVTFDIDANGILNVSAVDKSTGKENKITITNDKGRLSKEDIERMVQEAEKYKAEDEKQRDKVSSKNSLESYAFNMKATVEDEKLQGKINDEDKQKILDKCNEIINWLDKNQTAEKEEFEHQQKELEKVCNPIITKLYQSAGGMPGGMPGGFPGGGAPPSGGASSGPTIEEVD
row,Binder,Kd [µM]
1,NMYGFRKVVHIEQC(fluorescein‑5‑maleimide) [Hsf1 peptide N74‐Q86‐C],> 60
2,GVKRKSPSMSNC(fluorescein‑5‑maleimide) [Hsf1 peptide G204‐N214‐C_SSS],> 60

# The next lines start with the values.
row,Kd [µM],Binder
1,> 60,PKYSRQFSLEHVHC(fluorescein‑5‑maleimide) [Hsf1 peptide P223‐H235‐C]
2,> 60,NRSSGSKRKC(fluorescein‑5‑maleimide) [Hsf1 peptide N200‐K208‐C_SSS]

# Reference: paper PMC7360973 (2020)
